Results from paper PMC4666417, “Specific Interaction between eEF1A and HIV RT Is Critical for HIV-1 Reverse Transcription and a Potential Anti-HIV Target” (PLoS Pathogens, 2015).

What was measured:
[1] = target: HIV-1 Gag, 6xHis-tagged, purified (HIV-1); experiment: BLI; biotinylated eEF1 subunit (eEF1A1, eEF1B, eEF1D or eEF1G) immobilised on streptavidin biosensor; RT subunits, RT heterodimer, Gag or RTp66 mutants as analytes at 90, 30 and 10 nM (mutants at 90 nM); kinetic buffer 1 mM phosphate, 15 mM NaCl, 0.002% Tween-20, 0.1 mg/ml gelatine, 1000 rpm, OctetRed; details: both partners purified
[2] = target: T1, HIV-1 RT p66, 6xHis-tagged, purified (gift) (HIV-1, UniProt P04585 588-1147); experiment: as above; details: both partners purified
T1 construct: source: E. coli, purified; gift

B1: eEF1A1 (eukaryotic elongation factor 1 subunit A1), MYC/DDK-tagged (natural protein, human, UniProt P68104 1-462, looked up)
chain: MGKEKTHINIVVIGHVDSGKSTTTGHLIYKCGGIDKRTIEKFEKEAAEMGKGSFKYAWVLDKLKAERERGITIDISLWKFETSKYYVTIIDAPGHRDFIKNMITGTSQADCAVLIVAAGVGEFEAGISKNGQTREHALLAYTLGVKQLIVGVNKMDSTEPPYSQKRYEEIVKEVSTYIKKIGYNPDTVAFVPISGWNGDNMLEPSANMPWFKGWKVTRKDGNASGTTLLEALDCILPPTRPTDKPLRLPLQDVYKIGGIGTVPVGRVETGVLKPGMVVTFAPVNVTTEVKSVEMHHEALSEALPGDNVGFNVKNVSVKDVRRGNVAGDSKNDPPMEAAGFTAQVIILNHPGQISAGYAPVLDCHTAHIACKFAELKEKIDRRSGKKLEDGPKFLKSGDAAIVDMVPGKPMCVESFSDYPPLGRFAVRDMRQTVAVGVIKAVDKKAAGAGKVTKSAQKAQKAK
modifications: biotinylated with EZ-Link Sulfo-NHS-Biotin where immobilised on the biosensor
notes: human eEF1A1, full-length; Used as analyte (a1, a2, a5) and, biotinylated, as immobilised ligand (a3); also called MYC/DDK-eEF1A1; purified eEF1A; source: HEK293 cells, bought: OriGene; not shown: MYC, C-terminal, kept; DDK, C-terminal, kept
- Kd [1]: 21.5 ± 11.1 nM
- koff [1]: 0.00188 s⁻¹
- kon [1]: 87500 M⁻¹ s⁻¹
- Kd [2]: 3.19 ± 1.08 nM
- koff [2]: 0.000222 s⁻¹
- kon [2]: 69500 M⁻¹ s⁻¹
